Source: publication PMC7840992

Target: luminGAVPO (luminescent GAVPO), Nluc-GAVPO fusion with NG configuration

induction ratio of a Gluc reporter driven by Gal4 binding sites, HEK293 cells, furimazine alone 0-25 uM, maximum at 2.5 uM: 116 fold
Substance: luminGAVPO (luminescent GAVPO), Nluc-GAVPO fusion with NG configuration
